The results in this text go back to US6979530.

In this data set the target is T1, Peptide conjugate 9 (DYE^2-Gly-Asp-Glu-Val-Asp-Gly-Ile-Lys-DYE^1).
T1 chain: GDEVDGIK

B1: purified caspase-3 (BD PharMingen) (protein)
chain: SGISLDNSYKMDYPEMGLCIIINNKNFHKSTGMTSRSGTDVDAANLRETFRNLKYEVRNKNDLTREEIVELMRDVSKEDHSKRSSFVCVLLSHGEEGIIFGTNGPVDLKKITNFFRGDRCRSLTGKPKLFIIQACRGTELDCGIETDSGVDDDMACHKIPVEADFLYAYSTAPGYYSWRNSKDGSWFIQSLCAMLKQYADKLEFMHILTRVNRKVATEFESFSFDATFHAKKQIPCIVSMLTKELYFYH
Consider B1, for which the “fluorescence excitation and emission spectra before and after adding purified caspase-3 (in vitro cleavage)” value is “When purified caspase-3 is added to 9, significant excitation fluorescence (FIG. 6) and significant emission fluorescence is detected (FIG. 7) from the donor dibenzorhodamine dye”; the “time course of donor dye fluorescence emission after mixing with caspase-3 (in vitro cleavage)” value is “Emission from the donor dye increased rapidly during the first 5 to 10 minutes and stabilized in about an hour, indicating rapid cleavage”.
